In patent US20240252614A1:

How the values were obtained:
Details in all cases: remark: other sources report otherwise
hMPV060 (hMPV A), Q6WB98 = assay: BLI, 50C stress
hMPV054 (hMPV A), Q6WB98 = assay: BLI, 50C stress
hMPV052 (hMPV A), Q6WB98 [1] = assay: BLI, 50C stress
hMPV048 (hMPV A), Q6WB98 = assay: BLI, 50C stress
hMPV044 (hMPV A), Q6WB98 = assay: BLI, 50C stress
hMPV066 (hMPV A), Q6WB98 = assay: BLI, 50C stress
hMPV049 (hMPV A), Q6WB98 = assay: BLI, 50C stress
hMPV062 (hMPV A), Q6WB98 = assay: BLI, 50C stress
hMPV046 (hMPV A), Q6WB98 = assay: BLI, 50C stress
hMPV055 (hMPV A), Q6WB98 = assay: BLI, 50C stress
hMPV063 (hMPV A), Q6WB98 = assay: BLI, 50C stress
hMPV069 (hMPV A), Q6WB98 = assay: BLI, 50C stress
hMPV043 (hMPV A), Q6WB98 = assay: BLI, 50C stress
hMPV058 (hMPV A), Q6WB98 [2] = assay: BLI, 50C stress
hMPV075 (hMPV A), Q6WB98 = assay: BLI, 50C stress
[3] = molecular target: hMPV A F WT Control (hMPV A), Q6WB98; assay: BLI, 50C stress
hMPV047 (hMPV A), Q6WB98 = assay: BLI, 50C stress
hMPV077 (hMPV A), Q6WB98 = assay: BLI, 50C stress
hMPV053 (hMPV A), Q6WB98 = assay: BLI, 50C stress
hMPV068 (hMPV A), Q6WB98 = assay: BLI, 50C stress
hMPV045 (hMPV A), Q6WB98 [4] = assay: BLI, 50C stress
hMPV061 (hMPV A), Q6WB98 = assay: BLI, 50C stress
hMPV071 (hMPV A), Q6WB98 = assay: BLI, 50C stress
hMPV067 (hMPV A), Q6WB98 [5] = assay: BLI, 50C stress
hMPV050 (hMPV A), Q6WB98 = assay: BLI, 50C stress
hMPV059 (hMPV A), Q6WB98 = assay: BLI, 50C stress
hMPV080 (hMPV A), Q6WB98 = assay: BLI, 53C stress
[6] = molecular target: hMPV A F WT Control (hMPV A), Q6WB98; assay: BLI, 53C stress
hMPV052 (hMPV A), Q6WB98 [7] = assay: BLI, no stress
hMPV058 (hMPV A), Q6WB98 [8] = assay: BLI, no stress
hMPV045 (hMPV A), Q6WB98 [9] = assay: BLI, no stress
hMPV067 (hMPV A), Q6WB98 [10] = assay: BLI, no stress
hMPV082 (hMPV A), Q6WB98 = assay: BLI, 53C stress
hMPV078 (hMPV A), Q6WB98 = assay: BLI, 53C stress
hMPV079 (hMPV A), Q6WB98 = assay: BLI, 53C stress
hMPV087 (hMPV A), Q6WB98 = assay: BLI, 53C stress
hMPV090 (hMPV A), Q6WB98 = assay: BLI, 53C stress
hMPV097 (hMPV A), Q6WB98 = assay: BLI, 53C stress
hMPV086 (hMPV A), Q6WB98 = assay: BLI, 53C stress
hMPV083 (hMPV A), Q6WB98 = assay: BLI, 53C stress
hMPV088 (hMPV A), Q6WB98 = assay: BLI, 53C stress
[11] = molecular target: hMPV A F WT Control (hMPV A), Q6WB98; assay: BLI, 53C stress; remark: listed apart in the source
hMPV084 (hMPV A), Q6WB98 = assay: BLI, 53C stress
hMPV085 (hMPV A), Q6WB98 = assay: BLI, 53C stress

B1: MPE8 mAb (antibody, V domains shown)
VH: EVQLVESGGGLVKPGGSLRLSCAASGFTFSSYSMNWVRQAPGKGLEWVSSISASSSYSDYADSAKGRFTISRDNAKTSLFLQMNSLRAEDTAIYFCARARATGYSSITPYFDIWGQGTLVTVSS
VL: QSVVTQTPSVSGAPGQRVTISCTGSSSNIGAGYDVHWYQQLPGTAPKLLIYDNNNRPSGVPDRFSASKSGTSASLAITGLQAEDEADYYCQSYDRNLSGVFGTGTKVTVL
Response Shift (hMPV060 (hMPV A), Q6WB98): 0.712 nm
Response Shift (hMPV054 (hMPV A), Q6WB98): 0.381 nm
Response Shift (hMPV052 (hMPV A), Q6WB98 [1]): 0.482 nm
Response Shift (hMPV048 (hMPV A), Q6WB98): 0.377 nm
Response Shift (hMPV044 (hMPV A), Q6WB98): 0.722 nm
Response Shift (hMPV066 (hMPV A), Q6WB98): 0.666 nm
Response Shift (hMPV049 (hMPV A), Q6WB98): 0.343 nm
Response Shift (hMPV062 (hMPV A), Q6WB98): 0.253 nm
Response Shift (hMPV046 (hMPV A), Q6WB98): 0.412 nm
Response Shift (hMPV055 (hMPV A), Q6WB98): 0.098 nm
Response Shift (hMPV063 (hMPV A), Q6WB98): 0.57 nm
Response Shift (hMPV069 (hMPV A), Q6WB98): 0.355 nm
Response Shift (hMPV043 (hMPV A), Q6WB98): 0.501 nm
Response Shift (hMPV058 (hMPV A), Q6WB98 [2]): 0.403 nm
Response Shift (hMPV075 (hMPV A), Q6WB98): 0.506 nm
Response Shift [3]: 0.174 nm
Response Shift (hMPV047 (hMPV A), Q6WB98): -0.024 nm
Response Shift (hMPV077 (hMPV A), Q6WB98): 0.472 nm
Response Shift (hMPV053 (hMPV A), Q6WB98): 0.422 nm
Response Shift (hMPV068 (hMPV A), Q6WB98): 0.194 nm
Response Shift (hMPV045 (hMPV A), Q6WB98 [4]): 0.139 nm
Response Shift (hMPV061 (hMPV A), Q6WB98): 0.537 nm
Response Shift (hMPV071 (hMPV A), Q6WB98): 0.671 nm
Response Shift (hMPV067 (hMPV A), Q6WB98 [5]): 0.571 nm
Response Shift (hMPV050 (hMPV A), Q6WB98): 0.14 nm
Response Shift (hMPV059 (hMPV A), Q6WB98): 0.344 nm
Response Shift (hMPV080 (hMPV A), Q6WB98): 0.798 nm
Response Shift [6]: 0.037 nm
Response Shift (hMPV052 (hMPV A), Q6WB98 [7]): 0.716 nm
Response Shift (hMPV058 (hMPV A), Q6WB98 [8]): 0.684 nm
Response Shift (hMPV045 (hMPV A), Q6WB98 [9]): 0.603 nm
Response Shift (hMPV067 (hMPV A), Q6WB98 [10]): 0.744 nm
Response Shift (hMPV082 (hMPV A), Q6WB98): 0.985 nm
Response Shift (hMPV078 (hMPV A), Q6WB98): 0.939 nm
Response Shift (hMPV079 (hMPV A), Q6WB98): 0.861 nm
Response Shift (hMPV087 (hMPV A), Q6WB98): 0.903 nm
Response Shift (hMPV090 (hMPV A), Q6WB98): 0.909 nm
Response Shift (hMPV097 (hMPV A), Q6WB98): 0.935 nm
Response Shift (hMPV086 (hMPV A), Q6WB98): 0.86 nm
Response Shift (hMPV083 (hMPV A), Q6WB98): 0.796 nm
Response Shift (hMPV088 (hMPV A), Q6WB98): 0.937 nm
Response Shift [11]: 0.096 nm
Response Shift (hMPV084 (hMPV A), Q6WB98): 0.908 nm
Response Shift (hMPV085 (hMPV A), Q6WB98): 0.889 nm
